Measured values published in paper PMC3821029.

Substrate: CO[C@H]1O[C@H](COS(=O)(=O)O)[C@@H](O[C@@H]2O[C@@H](C(=O)O)[C@@H](O[C@H]3O[C@H](COS(=O)(=O)O)[C@@H](O[C@@H]4O[C@H](C(=O)O)[C@@H](O[C@H]5O[C@H](COS(=O)(=O)O)[C@@H](O)[C@H](O)[C@H]5NS(=O)(=O)O)[C@H](O)[C@H]4O)[C@H](OS(=O)(=O)O)[C@H]3NS(=O)(=O)O)[C@H](O)[C@H]2OS(=O)(=O)O)[C@H](O)[C@H]1NS(=O)(=O)O
Assay: purified protein, by the assay type
Details: pH 5.0

B1: Recombinant human heparanase (Homo sapiens) (protein)
chain 1: KKFKNSTYSRSSVDVLYTFANCSGLDLIFGLNALLRTADLQWNSSNAQLLLDYCSSKGYNISWELGNEPNSFLKKADIFINGSQLGEDFIQLHKLLRKSTFKNAKLYGPDVGQPRRKTAKMLKSFLKAGGEVIDSVTWHHYYLNGRTATKEDFLNPDVLDIFISSVQKVFQVVESTRPGKKVWLGETSSAYGGGAPLLSDTFAAGFMWLDKLGLSARMGIEVVMRQVFFGAGNYHLVDENFDPLPDYWLSLLFKKLVGTKVLMASVQGSKRRKLRVYLHCTNTDNPRYKEGDLTLYAINLHNVTKYLRLPYPFSNKQVDKYLLRPLGPHGLLSKSVQLNGLTLKMVDDQTLPPLMEKPLRPGSSLGLPAFSYSFFVIRNAKVAACI
chain 2: QDVVDLDFFTQEPLHLVSPSFLSVTIDANLATDPRFLILLGSPKLRTLARGLSPAYLRFGGTKTDFLIFDPKKE
Km: 3.6 ± 0.5 µM
